Assays:
MALT1 = target: T1, MALT1 (Homo sapiens, UniProt Q9UDY8); experiment: MALT1 in vitro cleavage assay using fluorescent substrate; format: biochemical
T1 construct: GST
T1 sequence (Q9UDY8 1-824): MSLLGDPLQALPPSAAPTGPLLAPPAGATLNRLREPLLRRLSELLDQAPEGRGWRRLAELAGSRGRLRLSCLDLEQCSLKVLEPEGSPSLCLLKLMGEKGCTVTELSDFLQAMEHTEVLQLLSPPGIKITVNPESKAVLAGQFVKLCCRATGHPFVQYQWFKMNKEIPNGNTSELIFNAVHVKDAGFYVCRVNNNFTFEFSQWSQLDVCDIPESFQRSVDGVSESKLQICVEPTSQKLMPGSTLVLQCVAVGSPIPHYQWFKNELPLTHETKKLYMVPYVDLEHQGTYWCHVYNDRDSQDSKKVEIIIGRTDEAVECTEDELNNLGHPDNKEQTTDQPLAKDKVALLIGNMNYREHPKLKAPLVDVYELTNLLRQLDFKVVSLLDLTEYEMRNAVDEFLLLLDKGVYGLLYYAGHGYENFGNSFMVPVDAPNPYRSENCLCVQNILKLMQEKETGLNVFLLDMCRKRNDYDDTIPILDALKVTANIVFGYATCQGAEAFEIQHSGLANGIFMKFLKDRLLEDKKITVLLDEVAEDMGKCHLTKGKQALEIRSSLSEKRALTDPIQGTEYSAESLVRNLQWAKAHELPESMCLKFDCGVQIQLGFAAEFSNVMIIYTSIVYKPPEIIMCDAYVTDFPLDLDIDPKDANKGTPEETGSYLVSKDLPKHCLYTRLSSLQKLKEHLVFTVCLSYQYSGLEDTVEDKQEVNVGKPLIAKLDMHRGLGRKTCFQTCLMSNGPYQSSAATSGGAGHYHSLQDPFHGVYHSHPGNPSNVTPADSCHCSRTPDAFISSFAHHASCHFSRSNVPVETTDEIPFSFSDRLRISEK
Procedure: (§1) C) Impact of indicated compounds on MALT1, Caspase8 and cathepsin B was tested in in vitro cleavage assays using fluorescent substrates. Results and SD from three independent experiments are shown.
Preferably, MALT1 activity is determined in a MALT1 cleavage assay. […] The assay may be performed in cleavage buffer comprising for example 50 mM MES, 1 M sodium citrate pH 7, 150 mM NaCl, 10% sucrose, 0.1% chaps, 10 mM DTT. Catalytically active MALT1 cleaves the substrate and an increase of AMC fluorescence can be measured.

active MALT1 [1] = target: T2, active MALT1 (Homo sapiens, UniProt Q9UDY8); experiment: Labeling with diagnostic inhibitor in cell extracts (gel-based, fluorescence scan): active MALT1 band
T2 construct: endogenous in cells; host or cells: Jurkat T cells, primary human PBMCs and T cells, DLBCL cell lines (HBL1, TMD8, OCI-Ly3, OCI-Ly10, U2932, RIVA, BJAB, Su-DHL-4, Su-DHL-6)
T2 sequence (Q9UDY8 1-824): T1 sequence (Q9UDY8 1-824)
Procedure: (§2) Jurkat T cells were cultured in standard RPMI medium containing 10% FCS, 100 U/ml Penicillin/Streptomycin and 2 mM Glutamin. DNA transfection of 6 μg DNA in 8×10^6 Jurkat T cells was performed by electroporation in a GenePulser Xcell (BioRad) with a 220 Volt pulse. For siRNA experiments, Jurkat T cells were transfected with 100 nM siRNA and Atufect transfection reagent (Silence Therapeutics, Berlin). Jurkat T cells were stimulated either with 200 ng/ml PMA (phorbol 12-myristate 13-acetate) and 300 ng/ml Ionomycin (both Calbiochem) or CD3/CD28 antibody co-ligation (human CD3: 1 μg/ml; human CD28: 4 μg/ml; mouse IgG1: 2 μg/ml; mouse IgG2a: 2 μg/ml; BD Biosciences). DLBCL cell lines (HBL1, TMD8, OCI-Ly3, U2932, RIVA, BJAB, Su-DHL-4 and Su-DHL-6) were cultured in standard RPMI medium containing 20% FCS, 100 U/ml Penicillin/Streptomycin and 2 mM Glutamin. OCI-Ly10 cell line was cultured in IMDM containing 20% human serum, 100 U/ml Penicillin/Streptomycin, 2 U/ml heparine, 50 μM β-mercaptoethanol. Inhibitors 10 μM (z-VRPR-FMK, Mepazine, Thioridazine, CA-074Me) were added to the cells in media for 1 h, prior to stimulation and labeling with diagnostic MALT1 inhibitor.
Jurkat T cells (1-2×10^7), primary human PBMCs or primary human T cells (0.25 or 1×10^7) were lysed in 150 μl co-IP buffer without protease inhibitors. DLBCL (3×10^7) were lysed in 250 μl buffer. After centrifugation (14000 rpm, 10 min, 4° C.), 100 μl extract (DLBCL: 200 μl) was stained with probe 5 or probe 6 (3 μM end) for 50 min at 29° C., mixed with 4× loading dye and boiled.

active MALT1 [2] = target: T2, active MALT1; experiment: Probe 7-pulldown with streptavidin beads and western blot; format: cell-based; conditions: Jurkat T cells pretreated with 10 μM inhibitors, 0.1 μM probe 7
Procedure: as §2
Untreated DLBCL (1-2×10^7) or Jurkat T cells (stimulated with PMA/Ionomycin or CD3/28 or left untreated; 1-2×10^7), were lysed in 500 μl co-IP buffer without protease inhibitors, centrifuged, incubated with probe 7 (concentration as depicted) for 1 h at RT then incubated with streptavidin beads for 2 h at 4° C. Precipitate was washed, analysed by SDS-PAGE and western blot.

active MALT1 [3] = target: T2, active MALT1; experiment: ELISA-based assay (MALT1 ELASA) on streptavidin-coated plates with MALT1 antibody detection; format: cell-based; conditions: inhibitor-treated (10 μM) DLBCL cells, probe 7
Procedure: as §2
Untreated DLBCL (1×10^7), primary T cells (0.25×10^7) or Jurkat T cells (0.2-1×10^7) (stimulated or not) were lysed in 300 μl co-IP buffer without protease inhibitors, centrifuged, incubated with probe 7 (concentration as depicted) for 1 h at RT, then transferred to streptavidin-coated plates (96 well, clear) and incubated o/n at 4° C. After blocking with 2% BSA in PBS-T, detection was performed by incubation with MALT1 primary antibody (1 h, RT) and HRP-coupled secondary antibody (1 h, RT). […] was determined after TMB substrate incubation in a photometer (Bio-Tek).

cathepsin B = cathepsin B (Homo sapiens, UniProt P07858); experiment: Cathepsin B cleavage assay (zRR-AMC substrate); format: biochemical; set-up: purchased BioVision; conditions: 0.2 ng cathepsin B, 1 mM zRR-AMC, 2 h at 30° C.
Procedure: as §1
0.2 ng cathepsin B together with probe 5, z-VRPR-FMK (SEQ ID No. 6), mepazine or CA-074 was incubated with 1 mM zRR-AMC substrate for 2 h at 30° C. Assay was performed in 0.1 M sodium acetate pH 5.5, 10 mM DTT and 0.1 mM EDTA. Again, increase of AMC fluorescence is measured in a Synergy 2 Microplate Reader (Biotek).

Substance: z-VRPR-FMK (Z N-terminal cap, FMK warhead)
- inhibition of MALT1 protease activity in vitro (MALT1): inhibit MALT1
- effect of inhibitor on probe 6 labeling of active MALT1 (active MALT1 [1]; HBL1 cells, inhibitors 10 μM each): sensitivity
- effect of inhibitor pretreatment on probe 5 labeling of active MALT1 (active MALT1 [1]; Jurkat T cells, 10 μM inhibitor before stimulation, probe 5): prevents binding of diagnostic MALT1-inhibitor
- effect of inhibitor on formation of MALT1-probe 7 complexes (active MALT1 [2]): blocked
- effect of inhibitor on active MALT1 signal in DLBCL cells (active MALT1 [3]): strongly reduced
- inhibition of cathepsin B activity in vitro (cathepsin B): abrogated cathepsin B activity even though slightly less efficient

From US10502741B2, “Means and methods for detecting activated MALT1” (Helmholtz Zentrum München Deutsches Forschungszentrum für …, priority 2014, dated 2019)
